Assay results published in the supplement of paper PMC7877785.
± gives the uncertainty stated by the source.

Assay: self-splicing fitness, log relative to wild type (ln ratio); higher = more splicing; Tetrahymena group I intron in knt gene, E. coli kanamycin selection, DiMSum; sequences stand for … in CUCUCU…GGAGGGAAAAGUUAUCAGGCAUGCACCUGGUAGCUAGUCUUUAAACCAAUAGAUUGCAUCGGUUUAAAAGGCAAGACCGUCAAAUUGCGGGAAAGGGGUCAACAGCCGUUCAGUACCAAGUCUCAGGGGAAACUUUGAGAUGGCCUUGCAAAGGGUAUGGUAAUAAGCUGACGGACAUGGUCCUAACCACGCAGCCAAGUCCUAAGUCAACAGAUCUUCUGUUGAUAUGGAUGCAGUUCACAGACUAAAUGUCGGUCGGGGAAGAUGUAUUCUUCUCAUAAGAUAUAGUCGGACCUCUCCUUAAUGGGAGCUAGCGGAUGAAGUGAUGCAACACUGGAGCCGCUGGGAACUAAUUUGUAUGCGAAAGUAUAUUGAUUAGUUUUGGAGUACUCGUGGUCG
Outline: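 Library with all eight P1ex-region intron nucleotides randomised, intron inside the knt kanamycin-resistance gene on pET-22b(+), in E. coli BL21(DE3). Cells grew overnight at 37°C or 30°C on LB agar with or without 25 μg/mL kanamycin (plus 100 μg/mL carbenicillin, 50 μM IPTG, 0.2% rhamnose), in six replicate transformations. Pooled colonies were amplicon-sequenced on Illumina HiSeq 2500. DiMSum fitness is the error-weighted combination of wild-type-normalised replicate fold changes, kanamycin versus none.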

Sequence | self-splicing fitness (ln) (30 °C) | self-splicing fitness (ln) (37 °C)
UCCUAGCAAUAUUACGCCUA | -2.01 ± 0.41 | –
ACGUAGCAAUAUUACGGCUA | -1.9 ± 0.12 | -2.26 ± 0.18
ACUCAGCAAUAUUACGAGCG | -0.49 ± 0.061 | -0.185 ± 0.071
GAGAAGCAAUAUUACGGUAA | -1.64 ± 0.2 | -1.57 ± 0.18
ACUAAGCAAUAUUACGCCUC | -2.41 ± 0.21 | -1.64 ± 0.34
UAAUAGCAAUAUUACGACGU | -3.74 ± 0.33 | -1.76 ± 0.18
AACUAGCAAUAUUACGAAGG | -3.46 ± 0.2 | -2.74 ± 0.26
AGAGAGCAAUAUUACGGGUU | -4.74 ± 0.46 | -2.08 ± 0.23
CGUUAGCAAUAUUACGCGUG | -1.3 ± 0.099 | -1.36 ± 0.089
GUACAGCAAUAUUACGUACU | -2.77 ± 0.14 | -2.79 ± 0.25
UAACAGCAAUAUUACGAACU | -0.722 ± 0.11 | -0.651 ± 0.15
GCGGAGCAAUAUUACGGUAU | -3.38 ± 0.24 | -2.95 ± 0.26
GACGAGCAAUAUUACGUUAG | -3.02 ± 0.17 | -2.56 ± 0.19
UACCAGCAAUAUUACGCCGA | -1.45 ± 0.16 | -0.513 ± 0.17
GCCAAGCAAUAUUACGCAAC | -1.98 ± 0.13 | -1.32 ± 0.16
AUGGAGCAAUAUUACGGACU | -1.2 ± 0.18 | -0.626 ± 0.23
AAUUAGCAAUAUUACGAAUU | -2.7 ± 0.15 | -1.1 ± 0.13
GCGAAGCAAUAUUACGGCCG | -1.71 ± 0.29 | -1.34 ± 0.37
UUUCAGCAAUAUUACGGGAU | -2.73 ± 0.12 | -1.64 ± 0.13
GUUGAGCAAUAUUACGGCAU | -1.32 ± 0.12 | -0.928 ± 0.17
GACAAGCAAUAUUACGGGUU | -3.38 ± 0.14 | -3.46 ± 0.17
AACGAGCAAUAUUACGUAUA | -2.83 ± 0.19 | -2.34 ± 0.27
UAUAAGCAAUAUUACGGUGU | -2.97 ± 0.26 | -1.34 ± 0.18
CCGAAGCAAUAUUACGUUGU | -4.15 ± 0.32 | -3.37 ± 0.24
AUAUAGCAAUAUUACGAAUG | -1.77 ± 0.16 | -1.54 ± 0.18

Sequence | self-splicing fitness (ln) (30 °C) | self-splicing fitness (ln) (37 °C)
GCGGAGCAAUAUUACGAUUC | -1.32 ± 0.12 | -1.09 ± 0.15
CCUUAGCAAUAUUACGCGAA | -4.02 ± 0.26 | -2.62 ± 0.29
CUAAAGCAAUAUUACGUACU | -3.28 ± 0.17 | -2.57 ± 0.22
GUGGAGCAAUAUUACGCGGU | -1.16 ± 0.3 | -0.344 ± 0.29
UCAUAGCAAUAUUACGCAGC | -3.15 ± 0.35 | -1.03 ± 0.23
GUUGAGCAAUAUUACGGCUC | -2.04 ± 0.31 | -1.38 ± 0.31
CUUGAGCAAUAUUACGACUG | -0.383 ± 0.084 | 0.0311 ± 0.12
ACGGAGCAAUAUUACGAACG | -2.54 ± 0.16 | -0.693 ± 0.16
ACCAAGCAAUAUUACGGUGU | -3.43 ± 0.11 | -2.18 ± 0.11
CACUAGCAAUAUUACGUCCA | -2.87 ± 0.22 | -1.31 ± 0.16
GUCGAGCAAUAUUACGCAAG | -3.6 ± 0.27 | -2.71 ± 0.3
CAAGAGCAAUAUUACGAAUC | -3.46 ± 0.41 | -1.26 ± 0.38
AUGCAGCAAUAUUACGGUCA | -1.2 ± 0.14 | -1.08 ± 0.14
AGCUAGCAAUAUUACGCCCA | -1.5 ± 0.21 | -0.441 ± 0.35
GAACAGCAAUAUUACGAGUC | -2.08 ± 0.09 | -1.45 ± 0.094
CCGAAGCAAUAUUACGAGGG | -3 ± 0.18 | -1.73 ± 0.22
UUAAAGCAAUAUUACGGCGC | -0.589 ± 0.11 | 0.34 ± 0.17
AUCGAGCAAUAUUACGGUGG | – | -2.04 ± 0.36
GUCGAGCAAUAUUACGAGGA | – | -2.44 ± 0.49
AUCUAGCAAUAUUACGCAAC | -3.38 ± 0.37 | -2.06 ± 0.32
UACGAGCAAUAUUACGAAAU | – | -1.69 ± 0.25
GACAAGCAAUAUUACGGCUG | -0.552 ± 0.082 | -0.635 ± 0.11
GGCUAGCAAUAUUACGAUCC | 0.227 ± 0.47 | –
GCUAAGCAAUAUUACGAGGG | -2.18 ± 0.14 | -1.64 ± 0.16
